Assay results from PMC4452869.

Key:
[1] = target: HIV-1 reverse transcriptase p66 (HIV-1); assay: NMR (1H-13C HMQC of Ile delta-methyl-labelled protein, time-dependent); 45 µM [^13CH3-Ile]p66∆PL with 90 µM unlabeled p66 (twofold excess); 25 mM Tris-HCl-d11, pD 7.5, 100 mM KCl, 0.02% NaN3; successive 5.5-hr spectra; 35 °C; apparent time constants
[2] = target: HIV-1 reverse transcriptase p66 (HIV-1); assay: SEC; HiLoad 26/60 superdex 200 column, p66 and p66∆PL run separately; 50 mM Tris–HCl, pH 8.0, 200 mM NaCl, 1 mM EDTA; 0.5 ml/min; 4 °C; absorbance at 280 nm; monomer to dimer
[3] = target: HIV-1 reverse transcriptase p66 (HIV-1); assay: NMR (1H-13C HMQC of Ile delta-methyl-labelled protein, time-dependent); [^13CH3-Ile]p66 homodimerization; successive 5.5-hr spectra after dimerization conditions were introduced; 25 mM Tris-HCl-d11 in D2O, pD 7.51, 100 mM KCl, 0.02% NaN3; 35 °C; apparent time constants; monomer to dimer
[4] = target: HIV-1 reverse transcriptase p51 (HIV-1) (UniProt P03366); assay: NMR (1H-13C HMQC of Ile delta-methyl-labelled protein); 150 µM [^13CH3-Ile]p51 in 25 mM Tris-HCl-d11 in D2O (pD 7.5), 800 mM KCl, 20 mM MgCl2, 0.02% NaN3 (high salt to stabilise the homodimer); monomer to dimer

## p66∆PL, p66 deletion mutant lacking palm loop residues 219–230 (enzyme)
[1]
  apparent time constant of growth of the dimer resonance (Ile47C): 8.8 h
  apparent time constant of monomer decay (Ile47M resonance): 9.1 h
  apparent time constant of monomer decay (Ile393M resonance): 9.3 h
  mean monomer decay time constant: 9 h
  percent dimerized (limit reached): 80 to 90%
  percent of the Ile47' intensity in the dimer species, initial spectra: 30 to 40%
  percent of the Ile47' intensity in the dimer species, limiting value: 80%

## HIV-1 reverse transcriptase p66 (enzyme)
[2]
  dimer/monomer ratio (percent dimer): 75 % dimer
  stoichiometry N: 2
[3]
  apparent time constant of dimer formation (Ile382E resonance): 2.4 h

## HIV-1 reverse transcriptase p51 (from UniProt P03366 600-1039) (natural protein)
[4]
  percent dimer: 90%
